In PMC10786891, “Massively parallel profiling of RNA-targeting CRISPR-Cas13d” one finds Kd data, which are given here for 27 molecules.

The labels stand for the following.
B1: target 1 U3A,U10A (mixed)
RNA 1: CACCCGUGCAAAAAUGCAGGGGUCUAAAACUGAGCGGAUAACCUCUCUAUGG
RNA 2: GGGAAUGGAUCCACAUCUACGAAUUCGUACCAUAGAGAGGUAAUCCGCACACCGAGAUCGGAAGAGCACACGU
B2: target 1 U10A,A20C (mixed)
RNA 1: CACCCGUGCAAAAAUGCAGGGGUCUAAAACUGAGCGGAUAACCUCUCUAUGG
RNA 2: GGGAAUGGAUCCACAUCUACGAAUUCGUACCCUAGAGAGGUAAUCCGCUCACCGAGAUCGGAAGAGCACACGU
B3: target 1 insC 3' of 11,insC 3' of 11 (mixed)
RNA 1: CACCCGUGCAAAAAUGCAGGGGUCUAAAACUGAGCGGAUAACCUCUCUAUGG
RNA 2: GGGAAUGGAUCCACAUCUACGAAUUCGUACCAUAGAGAGGUCCUAUCCGCUCACCGAGAUCGGAAGAGCACACGU
B4: target 1 G5U,A9G (mixed)
RNA 1: CACCCGUGCAAAAAUGCAGGGGUCUAAAACUGAGCGGAUAACCUCUCUAUGG
RNA 2: GGGAAUGGAUCCACAUCUACGAAUUCGUACCAUAGAGAGGUUGUCCUCUCACCGAGAUCGGAAGAGCACACGU
B5: target 1 insC 3' of 18,insG 3' of 14 (mixed)
RNA 1: CACCCGUGCAAAAAUGCAGGGGUCUAAAACUGAGCGGAUAACCUCUCUAUGG
RNA 2: GGGAAUGGAUCCACAUCUACGAAUUCGUACCAUACGAGAGGGUUAUCCGCUCACCGAGAUCGGAAGAGCACACGU
B6: target 1 insC 3' of 11,insC 3' of 1 (mixed)
RNA 1: CACCCGUGCAAAAAUGCAGGGGUCUAAAACUGAGCGGAUAACCUCUCUAUGG
RNA 2: GGGAAUGGAUCCACAUCUACGAAUUCGUACCAUAGAGAGGUCUAUCCGCUCACCCGAGAUCGGAAGAGCACACGU
B7: target 1 G5A,G13C (mixed)
RNA 1: CACCCGUGCAAAAAUGCAGGGGUCUAAAACUGAGCGGAUAACCUCUCUAUGG
RNA 2: GGGAAUGGAUCCACAUCUACGAAUUCGUACCAUAGAGACGUUAUCCACUCACCGAGAUCGGAAGAGCACACGU
B8: target 1 insU 3' of 9,insC 3' of 5 (mixed)
RNA 1: CACCCGUGCAAAAAUGCAGGGGUCUAAAACUGAGCGGAUAACCUCUCUAUGG
RNA 2: GGGAAUGGAUCCACAUCUACGAAUUCGUACCAUAGAGAGGUUAUUCCGCCUCACCGAGAUCGGAAGAGCACACGU
B9: target 1 insG 3' of 14,insA 3' of 10 (mixed)
RNA 1: CACCCGUGCAAAAAUGCAGGGGUCUAAAACUGAGCGGAUAACCUCUCUAUGG
RNA 2: GGGAAUGGAUCCACAUCUACGAAUUCGUACCAUAGAGAGGGUUAAUCCGCUCACCGAGAUCGGAAGAGCACACGU
B10: target 1 insU 3' of 6,insU 3' of 4 (mixed)
RNA 1: CACCCGUGCAAAAAUGCAGGGGUCUAAAACUGAGCGGAUAACCUCUCUAUGG
RNA 2: GGGAAUGGAUCCACAUCUACGAAUUCGUACCAUAGAGAGGUUAUCCUGCUUCACCGAGAUCGGAAGAGCACACGU
B11: target 1 insC 3' of 11,insG 3' of 1 (mixed)
RNA 1: CACCCGUGCAAAAAUGCAGGGGUCUAAAACUGAGCGGAUAACCUCUCUAUGG
RNA 2: GGGAAUGGAUCCACAUCUACGAAUUCGUACCAUAGAGAGGUCUAUCCGCUCAGCCGAGAUCGGAAGAGCACACGU
B12: target 1 insC 3' of 12,insU 3' of 2 (mixed)
RNA 1: CACCCGUGCAAAAAUGCAGGGGUCUAAAACUGAGCGGAUAACCUCUCUAUGG
RNA 2: GGGAAUGGAUCCACAUCUACGAAUUCGUACCAUAGAGAGGCUUAUCCGCUCUACCGAGAUCGGAAGAGCACACGU
B13: target 1 C4G,A16C (mixed)
RNA 1: CACCCGUGCAAAAAUGCAGGGGUCUAAAACUGAGCGGAUAACCUCUCUAUGG
RNA 2: GGGAAUGGAUCCACAUCUACGAAUUCGUACCAUAGCGAGGUUAUCCGGUCACCGAGAUCGGAAGAGCACACGU
B14: target 1 G12A,C22A (mixed)
RNA 1: CACCCGUGCAAAAAUGCAGGGGUCUAAAACUGAGCGGAUAACCUCUCUAUGG
RNA 2: GGGAAUGGAUCCACAUCUACGAAUUCGUAACAUAGAGAGAUUAUCCGCUCACCGAGAUCGGAAGAGCACACGU
B15: target 1 insC 3' of 8,insC 3' of 8 (mixed)
RNA 1: CACCCGUGCAAAAAUGCAGGGGUCUAAAACUGAGCGGAUAACCUCUCUAUGG
RNA 2: GGGAAUGGAUCCACAUCUACGAAUUCGUACCAUAGAGAGGUUAUCCCCGCUCACCGAGAUCGGAAGAGCACACGU
B16: target 1 C7G,U10G (mixed)
RNA 1: CACCCGUGCAAAAAUGCAGGGGUCUAAAACUGAGCGGAUAACCUCUCUAUGG
RNA 2: GGGAAUGGAUCCACAUCUACGAAUUCGUACCAUAGAGAGGUGAUGCGCUCACCGAGAUCGGAAGAGCACACGU
B17: target 1 insG 3' of 11,insC 3' of 9 (mixed)
RNA 1: CACCCGUGCAAAAAUGCAGGGGUCUAAAACUGAGCGGAUAACCUCUCUAUGG
RNA 2: GGGAAUGGAUCCACAUCUACGAAUUCGUACCAUAGAGAGGUGUACUCCGCUCACCGAGAUCGGAAGAGCACACGU
B18: target 1 insG 3' of 19,insA 3' of 17 (mixed)
RNA 1: CACCCGUGCAAAAAUGCAGGGGUCUAAAACUGAGCGGAUAACCUCUCUAUGG
RNA 2: GGGAAUGGAUCCACAUCUACGAAUUCGUACCAUGAGAAGAGGUUAUCCGCUCACCGAGAUCGGAAGAGCACACGU
B19: target 1 insU 3' of 18,insU 3' of 6 (mixed)
RNA 1: CACCCGUGCAAAAAUGCAGGGGUCUAAAACUGAGCGGAUAACCUCUCUAUGG
RNA 2: GGGAAUGGAUCCACAUCUACGAAUUCGUACCAUAUGAGAGGUUAUCCUGCUCACCGAGAUCGGAAGAGCACACGU
B20: target 1 C4G,G12U (mixed)
RNA 1: CACCCGUGCAAAAAUGCAGGGGUCUAAAACUGAGCGGAUAACCUCUCUAUGG
RNA 2: GGGAAUGGAUCCACAUCUACGAAUUCGUACCAUAGAGAGUUUAUCCGGUCACCGAGAUCGGAAGAGCACACGU
B21: target 1 C7U,U11A (mixed)
RNA 1: CACCCGUGCAAAAAUGCAGGGGUCUAAAACUGAGCGGAUAACCUCUCUAUGG
RNA 2: GGGAAUGGAUCCACAUCUACGAAUUCGUACCAUAGAGAGGAUAUUCGCUCACCGAGAUCGGAAGAGCACACGU
B22: target 1 C2G,A9G (mixed)
RNA 1: CACCCGUGCAAAAAUGCAGGGGUCUAAAACUGAGCGGAUAACCUCUCUAUGG
RNA 2: GGGAAUGGAUCCACAUCUACGAAUUCGUACCAUAGAGAGGUUGUCCGCUGACCGAGAUCGGAAGAGCACACGU
B23: target 1 insC 3' of 11,insU 3' of 1 (mixed)
RNA 1: CACCCGUGCAAAAAUGCAGGGGUCUAAAACUGAGCGGAUAACCUCUCUAUGG
RNA 2: GGGAAUGGAUCCACAUCUACGAAUUCGUACCAUAGAGAGGUCUAUCCGCUCAUCCGAGAUCGGAAGAGCACACGU
B24: target 1 insA 3' of 10,insA 3' of 5 (mixed)
RNA 1: CACCCGUGCAAAAAUGCAGGGGUCUAAAACUGAGCGGAUAACCUCUCUAUGG
RNA 2: GGGAAUGGAUCCACAUCUACGAAUUCGUACCAUAGAGAGGUUAAUCCGACUCACCGAGAUCGGAAGAGCACACGU
B25: target 1 insC 3' of 10,insC 3' of 9 (mixed)
RNA 1: CACCCGUGCAAAAAUGCAGGGGUCUAAAACUGAGCGGAUAACCUCUCUAUGG
RNA 2: GGGAAUGGAUCCACAUCUACGAAUUCGUACCAUAGAGAGGUUCACUCCGCUCACCGAGAUCGGAAGAGCACACGU
B26: target 1 A1G,C4A (mixed)
RNA 1: CACCCGUGCAAAAAUGCAGGGGUCUAAAACUGAGCGGAUAACCUCUCUAUGG
RNA 2: GGGAAUGGAUCCACAUCUACGAAUUCGUACCAUAGAGAGGUUAUCCGAUCGCCGAGAUCGGAAGAGCACACGU
B27: target 1 insC 3' of 9,insU 3' of 5 (mixed)
RNA 1: CACCCGUGCAAAAAUGCAGGGGUCUAAAACUGAGCGGAUAACCUCUCUAUGG
RNA 2: GGGAAUGGAUCCACAUCUACGAAUUCGUACCAUAGAGAGGUUACUCCGUCUCACCGAGAUCGGAAGAGCACACGU

The data set has as its target T1, EsCas13d, nuclease-dead (Eubacterium siraeum, UniProt B0MS50, R295A;H300A;R849A;H854A).
T1 sequence: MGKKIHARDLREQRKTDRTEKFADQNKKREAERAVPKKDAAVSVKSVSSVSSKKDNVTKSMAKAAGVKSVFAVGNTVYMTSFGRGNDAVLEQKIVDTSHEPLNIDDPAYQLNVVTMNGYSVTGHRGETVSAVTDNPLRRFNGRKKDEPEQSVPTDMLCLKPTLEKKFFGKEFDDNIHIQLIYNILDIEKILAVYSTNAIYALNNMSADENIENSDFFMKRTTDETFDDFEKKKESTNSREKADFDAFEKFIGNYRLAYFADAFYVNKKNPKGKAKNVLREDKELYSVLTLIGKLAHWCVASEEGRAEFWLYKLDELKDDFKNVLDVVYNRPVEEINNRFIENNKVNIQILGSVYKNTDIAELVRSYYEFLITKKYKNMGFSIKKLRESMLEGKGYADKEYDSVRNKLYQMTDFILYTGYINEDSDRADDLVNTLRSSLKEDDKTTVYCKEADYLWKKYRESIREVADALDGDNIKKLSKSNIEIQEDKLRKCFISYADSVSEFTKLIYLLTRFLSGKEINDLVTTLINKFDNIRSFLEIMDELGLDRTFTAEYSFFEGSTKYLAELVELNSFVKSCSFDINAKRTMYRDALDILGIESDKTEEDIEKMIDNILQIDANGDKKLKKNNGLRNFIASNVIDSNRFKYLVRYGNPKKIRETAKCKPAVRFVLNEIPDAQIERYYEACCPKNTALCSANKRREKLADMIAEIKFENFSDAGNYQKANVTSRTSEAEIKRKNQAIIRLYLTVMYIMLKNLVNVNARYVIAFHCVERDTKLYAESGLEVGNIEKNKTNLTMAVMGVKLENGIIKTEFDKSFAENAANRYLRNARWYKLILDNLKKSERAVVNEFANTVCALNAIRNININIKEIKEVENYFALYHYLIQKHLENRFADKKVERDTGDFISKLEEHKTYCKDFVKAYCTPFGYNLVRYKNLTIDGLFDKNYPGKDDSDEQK
The data set is described as follows: crRNA (strand 1, pre-loaded); Mg2+; 40 mM Tris-HCl pH 7.5, 150 mM NaCl, 6 mM MgCl2, 1 mM DTT, 0.1% Tween-20, 0.2 mg/ml BSA; 25 C; 10 min per concentration, then washed. Particulars: tags: His6-TwinStrep-SUMO cleaved; N-terminal SNAP kept (SNAP-Surface 488); label: 3' end held by stalled T7 RNA polymerase.
A word on the Kd: it is the concentration at which binding is half-saturated. High values mean a looser complex, low ones a tighter complex. For B1, binding was put at a Kd of 21.2 ± 2.5 nM.
As for B2, the affinity, expressed as Kd, was 48 ± 4 nM.
The figure for B3 is 35 ± 7 nM; for B4 it is 27.2 ± 1.8 nM; for B5 it is 47.4 ± 3 nM.
Regarding B6, the Kd came to 26.2 ± 1.7 nM.
The figure for B7 is 50 ± 7 nM; for B8 it is 12.9 ± 1.3 nM; for B9 it is 30.3 ± 2.3 nM.
B10 showed a Kd of 10.3 ± 0.8 nM.
Regarding B11, binding was put at a Kd of 35 ± 9 nM.
The figure for B12 is 12.2 ± 0.8 nM.
In the case of B13 it was 39 ± 5 nM; in that of B14, 13 ± 0.9 nM; in that of B15, 14.5 ± 0.7 nM.
In the case of B16 it was 20 ± 0.8 nM; in that of B17, 31.4 ± 2.2 nM; in that of B18, 73 ± 12 nM.
B19 came in with an equilibrium dissociation constant (Kd) of 40.4 ± 2.6 nM.
The figure for B20 is 9.5 ± 1.6 nM.
In the case of B21 it was 32.7 ± 2.9 nM; in that of B22, 9.1 ± 0.4 nM.
In the case of B23 it was 35 ± 8 nM.
For the molecule B24, the equilibrium dissociation constant (Kd) came out at 5.79 ± 0.32 nM.
In the case of B25 it was 14.9 ± 0.6 nM; in that of B26, 4.5 ± 0.4 nM; in that of B27, 7.39 ± 0.32 nM.
